Data set [1] deals with the molecule itself. The data set is described as follows: dynamic light scattering; peptide alone, 10 µg/mL in PBS, 25°C, Zetasizer Nano S; hydrodynamic diameter of the particles in solution.
The nature of data set [2]: Intrinsic (tryptophan) fluorescence binding. On the set-up: species or system Salmonella minnesota serotype Re 595. The note with it: excitation 295 nm, peptide/protein 10 µg/mL in PBS pH 7.2, Hill equation fit, mean ± SD of three experiments, read-out: Re-LPS Kd ± σ (apparent Kd). The protocol:
(§1) To explore the ability of different peptides/proteins to bind LTA (Mr = 14,000, from S. aureus; Sigma) and rough LPS (Re-LPS, Mr = 2,500, from Salmonella minnesota serotype Re 595; Sigma), binding studies were carried out in an AB2 spectrofluorometer with a thermostated cuvette holder (±0.1°C), using 5 mm × 5 mm path length quartz cuvettes as described ([30]). Re-LPS concentration was assessed by quantification of 2-keto-3-deoxyoctulosonic acid ([31]). Peptide/protein samples (10 µg/mL) were titrated with different amounts of a stock solution of either LTA or Re-LPS in phosphate buffered saline (PBS) pH 7.2, and the Trp fluorescence emission spectra recorded with excitation at 295 nm. The fluorescence intensity readings were corrected for the dilution caused by […]. […] The apparent dissociation constant (Kd) of peptide/protein–ligand complexes were obtained by non-linear least-squares fitting to the Hill equation of the change in peptide fluorescence at 353 nm with the amount of added LTA or Re-LPS ([31]): ΔF/ΔFmax = [L]^n/([L]^n + Kd), where ΔF is the change in fluorescence intensity at 353 nm relative to the intensity of free peptide; ΔFmax is the change in fluorescence intensity at saturating LTA or Re-LPS concentrations; [L] is the molar concentration of free ligand; and n is the Hill coefficient. […]

Data set [3] is described as follows: Intrinsic (tryptophan) fluorescence binding. The following applies: excitation 295 nm, peptide/protein 10 µg/mL in PBS pH 7.2, Hill equation fit, mean ± SD of three experiments, read-out: LTA Kd ± σ (apparent Kd). On the set-up: species or system S. aureus. Here is the method: as §1
A short description of data set [4]: Solid phase binding assay (ELISA). On the set-up: species or system E. coli O111:B4. The following applies: biotin-labeled peptides/proteins 5–20 µg/mL, overnight 4°C, HRP-streptavidin/TMB, OD 405–620 nm. Here is the method: (§2) 96-well microtiter plates (Nunc, Roskilde, Denmark) were coated overnight at 4°C with 5 µg/mL of purified LPS (from E. coli O111:B4, Sigma L2630) or LTA (from S. aureus, Sigma L2515) in PBS and then incubated for 2 h at room temperature in blocking solution (20 mM Tris-HCl pH 7.4 plus 0.05% Tween 20 and 1% BSA). Biotin-labeled peptides/proteins (2.5–20 µg/mL) were added and incubated overnight at 4°C in blocking solution. After extensive washing, bound peptides/proteins were detected by the addition of horseradish peroxidase-labeled streptavidin (1:5,000 dilution; DAKO) for 1 h at room temperature. Color was developed by adding 3,3’,5,5’-tetramethylbenzidine liquid substrate (Sigma) and optical density read at 405–620 nm.
(§3) Figure 3 Analysis of the direct binding characteristics of CD6-derived peptides to purified pathogen-associated molecular patterns (PAMPs) from Gram-negative and Gram-positive origin. […] Following overnight incubation at 4°C bound peptides or proteins were developed by addition of horseradish peroxidase–streptavidin and 3,3’,5,5’-tetramethylbenzidine substrate and further readings at OD 405–620 nm. Results are expressed as mean ± SD of duplicates from one representative experiment of three performed. […] (C) Apparent Kd values and Hill coefficients for the binding of peptides and proteins in study to LPS and LTA determined by tryptophan fluorescence. […]

Data set [5] in a line: Solid phase binding assay (ELISA). On the set-up: species or system S. aureus. The following applies: biotin-labeled peptides/proteins 5–20 µg/mL, overnight 4°C, HRP-streptavidin/TMB, OD 405–620 nm. The protocol: as §2, §3
A short description of data set [6]: Endotoxin adsorption on coated Eupergit beads (LAL assay). The note with it: peptide/protein immobilized on Eupergit beads, 50 UI/mL LPS, 0–150 min, room temperature, vs HSA- and rshCD5-coated controls, preliminary. Here is the method: CD6.PD1 and CD6.PD2 high affinity (and also CD6.PD3) to LPS and LTA makes these peptides suitable candidates for new supportive non-antibiotic strategies against sepsis. One such possibility would be the adsorption of circulating bacterial toxins by CD6-derived peptides covalently coupled to a solid phase. Preliminary results obtained by incubating an endotoxin solution (50 UI/mL LPS) with Eupergit® beads coated with different CD6-derived peptides (CD6.PD2 and CD6.PD3) or proteins (HSA, rshCD5, and rshCD6) for different periods of time support this approach (Figure S2 in Supplementary Material). […]
Supplementary Figure S1. Binding of rshCD6 protein, and CD6 (CD6.PD1, CD6.PD2, and CD6.PD3) and DMBT-1/SAG (pbs1)-derived peptides to LPS and LTA determined by tryptophan fluorescence. […] Peptide samples (with and without either Re-LPS or LTA) and blank samples (Re-LPS or LT A alone) were ex cited at 295 nm, and the emission spectra recorded from 300 to 400 nm. Results are expressed as the change in peptide fluorescence ( ΔF) at the wavelength of the emission maxima (353 nm for the peptides and 337 nm for rshCD6 protein) in the presence and absence of either Re- LPS or LT A. Results are means ± SD of 3 experiments. Peptide fluorescence changes at 353 nm were fitt ed to the Hill equation. […]

3 molecules from paper PMC5906529, “Conserved Bacterial-Binding Peptides of the Scavenger-Like Human Lymphocyte Receptor CD6 Protect From Mouse Experimental Sepsis” (Frontiers in Immunology, 2018) can be followed below.

Where two headings read alike, the source gives them in different places.

B1: CD6.PD3 peptide (peptide)
peptide: GQVEVHFRGVW
notes: source: synthetic peptide, manufactured by ProteoGenix (>80% purity)
Consider B1, for which the binding result in data set [1] is “binds”.

B2: rshCD6: recombinant soluble human CD6 ectodomain (protein, UniProt P30203 18-402, looked up)
extracellular domain: HPSPAPPDQLNTSSAESELWEPGERLPVRLTNGSSSCSGTVEVRLEASWEPACGALWDSRAAEAVCRALGCGGAEAASQLAPPTPELPPPPAAGNTSVAANATLAGAPALLCSGAEWRLCEVVEHACRSDGRRARVTCAENRALRLVDGGGACAGRVEMLEHGEWGSVCDDTWDLEDAHVVCRQLGCGWAVQALPGLHFTPGRGPIHRDQVNCSGAEAYLWDCPGLPGQHYCGHKEDAGAVCSEHQSWRLTGGADRCEGQVEVHFRGVWNTVCDSEWYPSEAKVLCQSLGCGTAVERPKGLPHSLSGRMYYSCNGEELTLSNCSWRFNNSNLCSQSLAARVLCSASRSLHNLSTPEVPASVQTVTIESSVTVKIENKESRELMLL
modifications: extracellular domain
notes: recombinant soluble human CD6 ectodomain
Consider B2, for which the Kd in data set [2] is 630 ± 10 nM; in data set [3], 11 ± 4 nM. In addition, the “Binding to solid-phase bound LPS” value in data set [4] is reported as “dose-dependent binding”. In addition, in data set [5], the “Binding to solid-phase bound LTA” value is recorded as “dose-dependent binding”. In data set [6], the “Endotoxin levels after incubation with coated beads” value is reported as “reduced endotoxin levels”.

B3: rshCD5: recombinant soluble human CD5 protein, negative control (protein, UniProt P06127 25-372, looked up)
extracellular domain: RLSWYDPDFQARLTRSNSKCQGQLEVYLKDGWHMVCSQSWGRSSKQWEDPSQASKVCQRLNCGVPLSLGPFLVTYTPQSSIICYGQLGSFSNCSHSRNDMCHSLGLTCLEPQKTTPPTTRPPPTTTPEPTAPPRLQLVAQSGGQHCAGVVEFYSGSLGGTISYEAQDKTQDLENFLCNNLQCGSFLKHLPETEAGRAQDPGEPREHQPLPIQWKIQNSSCTSLEHCFRKIKPQKSGRVLALLCSGFQPKVQSRLVGGSSICEGTVEVRQGAQWAALCDSSSARSSLRWEEVCREQQCGSVNSYRVLDAGDPTSRGLFCPHQKLSQCHELWERNSYCKKVFVTCQDPNP
modifications: extracellular domain
notes: recombinant soluble human CD5 protein, negative control
As to B3, in data set [4], the “Binding to solid-phase bound LPS” value was “no significant binding”. Moreover, in data set [5], the “Binding to solid-phase bound LTA” value is listed as “no significant binding”.
